The values that follow come from paper PMC10285643 (iScience, 2023).

What is called Kd is the free concentration of one partner at which half of the binding sites on the other are occupied at equilibrium, for simple one-to-one binding. A lower Kd goes with tighter binding.

In the experiment the target is extracellular domain of Toll-like receptor 4 (TLR4) (UniProt O00206 24-631). Put plainly: ITC. On the technique in general: ITC needs no label: the signal is the heat of the interaction.
extracellular domain of Toll-like receptor 4 (TLR4), sequence (O00206 24-631): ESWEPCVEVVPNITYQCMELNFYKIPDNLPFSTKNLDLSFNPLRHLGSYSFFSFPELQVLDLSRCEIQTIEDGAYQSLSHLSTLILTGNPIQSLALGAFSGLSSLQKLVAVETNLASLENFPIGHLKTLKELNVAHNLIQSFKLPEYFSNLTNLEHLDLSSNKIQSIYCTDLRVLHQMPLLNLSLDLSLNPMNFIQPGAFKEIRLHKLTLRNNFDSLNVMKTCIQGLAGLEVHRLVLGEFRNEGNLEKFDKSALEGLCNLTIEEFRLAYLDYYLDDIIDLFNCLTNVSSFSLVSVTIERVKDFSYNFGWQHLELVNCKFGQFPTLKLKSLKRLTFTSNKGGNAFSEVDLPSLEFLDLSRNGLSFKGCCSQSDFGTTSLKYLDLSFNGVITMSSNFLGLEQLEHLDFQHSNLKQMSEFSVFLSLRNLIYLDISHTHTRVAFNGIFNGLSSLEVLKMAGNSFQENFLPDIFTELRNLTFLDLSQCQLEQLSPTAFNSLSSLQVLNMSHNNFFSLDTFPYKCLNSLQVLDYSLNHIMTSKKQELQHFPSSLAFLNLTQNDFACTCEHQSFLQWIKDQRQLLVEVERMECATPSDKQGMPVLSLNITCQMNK

B1: Cold-inducible RNA binding protein (CIRP) (natural protein, UniProt Q14011 1-172, looked up)
chain: MASDEGKLFVGGLSFDTNEQSLEQVFSKYGQISEVVVVKDRETQRSRGFGFVTFENIDDAKDAMMAMNGKSVDGRQIRVDQAGKSSDNRSRGYRGGSAGGRGFFRGGRGRGRGFSRGGGDRGYGGNRFESRSGGYGGSRDYYSSRSQSGGYSDRSSGGSYRDSYDSYATHNE
modifications: 15N-labeled (in the NMR titration)
Regarding B1, binding was characterised by a dissociation constant (Kd) of 3.72 ± 1.98 µM.
